From FireProtDB (doi:10.1006/jmbi.2001.4728)

B1: Cytochrome c-551, P00099 (parent)
chain: MKPYALLSLLATGTLLAQGAWAEDPEVLFKNKGCVACHAIDTKMVGPAYKDVAAKFAGQAGAEAELAQRIKNGSQGVWGPIPMPPNAVSDDEAQTLAKWVLSQK

Variants of: B1
Settings: Pseudomonas aeruginosa (strain ATCC 15692 / DSM 22644 / CIP 104116 / JCM 14847 / LMG 12228 / 1C / PRS 101 / PAO1); pH 7; 10 °C; Urea; Fluorescence; sodium phosphate 50 mM; reversible: yes; structure 451C; whole UniProt chain shown

| Variant | ddG of mutation (higher = less stable) [kcal/mol] | denaturant m value [kcal/mol/M] | denaturant midpoint (higher = more stable) [M] | unfolding free energy [kcal/mol] |
| --- | --- | --- | --- | --- |
| MKPYALLSLLATGTLLAQGAWAEDPEVLFKNKGCVACHAIDTKMVGPAYKDVAAKFAGQAGAEAELAQRIKNGSQGVWGPIPMPPNAVSDDEAQTLAKFVLSQK [W99F] | 1.2 | 1 | 5.6 | 5.9 |
| MKPYALLSLLATGTLLAQGAWAEDPEVLFKNKGCVACHAIDTKMVGPAYKDVAAKFAGQAGAEAELAQRIKNGSQGVFGPIPMPPNAVSDDEAQTLAKWVLSQK [W78F] | 1.9 | 1.1 | 4.6 | 5.2 |
| MKPYALLSLLATGTLLAQGAWAEDPEVLFKNKGCVACHAIDTKMVGPAYKDVAAKFAGQAGAEAELAQRIKNGSQGVWGPIPMPPNAVSDDQAQTLAKWVLSQK [E92Q] | 0.9 | 1.1 | 5.7 | 6.2 |
| MKPYALLSLLATGTLLAQGAWAEDPEVLFKNKGCVACHAIDTKMVGPAYKDVAAKFAGQAGAEAELAQRIKNGSQGVWGPIPMPPNAVSDDVAQTLAKWVLSQK [E92V] | 2 | 1.2 | 4.3 | 5.1 |
